Reference: IntAct's records for PubMed 16648845

B1: Serine/threonine-protein kinase Nek2 (Homo sapiens), P51955 (parent)
chain: MPSRAEDYEVLYTIGTGSYGRCQKIRRKSDGKILVWKELDYGSMTEAEKQMLVSEVNLLRELKHPNIVRYYDRIIDRTNTTLYIVMEYCEGGDLASVITKGTKERQYLDEEFVLRVMTQLTLALKECHRRSDGGHTVLHRDLKPANVFLDGKQNVKLGDFGLARILNHDTSFAKTFVGTPYYMSPEQMNRMSYNEKSDIWSLGCLLYELCALMPPFTAFSQKELAGKIREGKFRRIPYRYSDELNEIITRMLNLKDYHRPSVEEILENPLIADLVADEQRRNLERRGRQLGEPEKSQDSSPVLSELKLKEIQLQERERALKAREERLEQKEQELCVRERLAEDKLARAENLLKNYSLLKERKFLSLASNPELLNLPSSVIKKKVHFSGESKENIMRSENSESQLTSKSKCKDLKKRLHAAQLRAQALSDIEKNYQLKSRQILGMR

Variants of: B1
Details: with cdc27_human CDC27, P30260
cdc27_human CDC27, P30260, sequence (P30260 whole entry): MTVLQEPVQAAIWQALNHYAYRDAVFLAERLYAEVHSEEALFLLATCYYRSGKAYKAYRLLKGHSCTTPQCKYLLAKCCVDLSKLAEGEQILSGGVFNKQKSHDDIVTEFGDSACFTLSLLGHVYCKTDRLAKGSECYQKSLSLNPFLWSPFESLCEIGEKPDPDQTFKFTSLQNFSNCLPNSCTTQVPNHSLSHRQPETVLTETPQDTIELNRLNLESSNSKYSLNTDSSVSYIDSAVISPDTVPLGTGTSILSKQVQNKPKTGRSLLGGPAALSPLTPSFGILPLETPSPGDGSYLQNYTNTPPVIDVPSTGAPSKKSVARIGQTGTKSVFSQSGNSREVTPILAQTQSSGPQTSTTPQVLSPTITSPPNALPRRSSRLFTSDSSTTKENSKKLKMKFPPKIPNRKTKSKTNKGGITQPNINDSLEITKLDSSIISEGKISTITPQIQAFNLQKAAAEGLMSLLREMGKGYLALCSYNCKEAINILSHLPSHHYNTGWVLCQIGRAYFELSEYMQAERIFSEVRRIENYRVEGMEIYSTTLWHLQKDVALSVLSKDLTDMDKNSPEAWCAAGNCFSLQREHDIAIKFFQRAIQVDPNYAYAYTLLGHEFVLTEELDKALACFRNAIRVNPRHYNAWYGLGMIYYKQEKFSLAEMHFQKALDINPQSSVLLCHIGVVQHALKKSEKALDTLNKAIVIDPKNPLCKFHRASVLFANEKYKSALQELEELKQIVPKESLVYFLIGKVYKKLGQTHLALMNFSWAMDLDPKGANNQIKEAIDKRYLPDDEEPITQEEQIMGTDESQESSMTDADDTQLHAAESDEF

effect of a mutation on the interaction	Variant
decreasing interaction	MPSRAEDYEVLYTIGTGSYGRCQKIRRKSDGKILVWKELDYGSMTEAEKQMLVSEVNLLRELKHPNIVRYYDRIIDRTNTTLYIVMEYCEGGDLASVITKGTKERQYLDEEFVLRVMTQLTLALKECHRRSDGGHTVLHRDLKPANVFLDGKQNVKLGDFGLARILNHDTSFAKTFVGTPYYMSPEQMNRMSYNEKSDIWSLGCLLYELCALMPPFTAFSQKELAGKIREGKFRRIPYRYSDELNEIITRMLNLKDYHRPSVEEILENPLIADLVADEQRRNLERRGRQLGEPEKSQDSSPVLSELKLKEIQLQERERALKAREERLEQKEQELCVRERLAEDKLARAENLLKNYSLLKERKFLSLASNPELLNLPSSVIKKKVHFSGESAAAIMRSEASESQLTSKSKCKDLKKRLHAAQLRAQALSDIEKNYQLKSRQILGMR [K391A;E392A;N393A;N399A]
